Test results taken from article PMC6959235, “A mosquito salivary protein promotes flavivirus transmission by activation of autophagy” (Nature Communications, 2020).

Biological target: recombinant LRPPRC protein purified from 293F cells (human, UniProt P42704 60-1394)
Experiment: ELISA
Conditions: both partners purified

B1: Aedes aegypti venom allergen-1 (AaVA-1), recombinant, from Drosophila S2 cells (natural protein)
chain: NYCDQSLCRRGPHVACNAPTQFGSACGQEPKFVKMDARMKNLLLKKHNELRAEIACGKHGFPQAARMPTLVWDDELAHIASFNARKCIFAHDKCRNTREFKFAGQNLAITAFAGYNFQAADRAENFTQEWFNEHKDCPKSYVDSYPMSHSGPQIGHFTQMVNDRAWKMGCSMVHYKNGRVIKYYLVCNYSMTNMIEEPIYTRGSAGSKCQTGQNPQYRGLCSPREKVRSESYRG
notes: also called AAEL000793; purified AaVA-1
B1: binds.
